{"source": "patent US20140193915", "about": "“COMPOSITIONS AND METHODS FOR CUSTOM SITE-SPECIFIC DNA RECOMBINASES” (Monsanto Technology, LLC, published 2014)", "binders": {"B1": {"name": "Gin18TALE+0 (dsDNA)", "DNA 1": "AGAAGGTATTTATACCAAAACCATGGTTTACATATAAATACCTTCT", "DNA 2": "AGAAGGTATTTATATGTAAACCATGGTTTTGGTATAAATACCTTCT"}}, "assay_in_all_cases": "cell_activity; E. coli", "conditions_in_all_cases": "tags: 6-His", "key": {"sN-TALER IIa-1": {"target": "T1, sN-TALER IIa-1 (synthetic)", "T1 chain": "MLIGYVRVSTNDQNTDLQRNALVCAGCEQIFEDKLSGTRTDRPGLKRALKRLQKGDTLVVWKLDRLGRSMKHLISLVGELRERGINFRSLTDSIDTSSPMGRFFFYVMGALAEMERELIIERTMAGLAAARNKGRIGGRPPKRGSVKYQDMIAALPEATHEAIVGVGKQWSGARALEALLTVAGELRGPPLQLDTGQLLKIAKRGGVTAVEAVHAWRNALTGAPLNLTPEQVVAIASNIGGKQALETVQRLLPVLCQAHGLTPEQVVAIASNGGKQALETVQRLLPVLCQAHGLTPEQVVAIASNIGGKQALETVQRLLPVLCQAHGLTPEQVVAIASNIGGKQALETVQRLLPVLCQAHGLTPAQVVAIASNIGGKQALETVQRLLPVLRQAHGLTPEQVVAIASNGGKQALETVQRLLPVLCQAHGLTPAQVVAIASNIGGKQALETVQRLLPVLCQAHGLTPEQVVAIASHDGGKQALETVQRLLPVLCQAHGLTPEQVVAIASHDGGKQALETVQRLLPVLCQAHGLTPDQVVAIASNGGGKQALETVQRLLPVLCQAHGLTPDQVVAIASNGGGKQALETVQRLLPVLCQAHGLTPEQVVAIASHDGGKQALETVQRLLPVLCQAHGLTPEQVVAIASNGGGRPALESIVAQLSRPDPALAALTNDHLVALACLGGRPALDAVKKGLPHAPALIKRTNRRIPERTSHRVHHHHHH", "summary_of_the_method": "(§1)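 DH5alpha cells co-transformed (heat shock or electroporation) with N-TALER expression and reporter plasmids at ~1:1 mass ratio; reporter alone as control. Plated on chloramphenicol/kanamycin/X-gal, grown 37° C. for 18 to 36 hours; recombination scored by colony colour.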"}, "sN-TALER III-1": {"target": "T2, sN-TALER III-1 (synthetic)", "T2 chain": "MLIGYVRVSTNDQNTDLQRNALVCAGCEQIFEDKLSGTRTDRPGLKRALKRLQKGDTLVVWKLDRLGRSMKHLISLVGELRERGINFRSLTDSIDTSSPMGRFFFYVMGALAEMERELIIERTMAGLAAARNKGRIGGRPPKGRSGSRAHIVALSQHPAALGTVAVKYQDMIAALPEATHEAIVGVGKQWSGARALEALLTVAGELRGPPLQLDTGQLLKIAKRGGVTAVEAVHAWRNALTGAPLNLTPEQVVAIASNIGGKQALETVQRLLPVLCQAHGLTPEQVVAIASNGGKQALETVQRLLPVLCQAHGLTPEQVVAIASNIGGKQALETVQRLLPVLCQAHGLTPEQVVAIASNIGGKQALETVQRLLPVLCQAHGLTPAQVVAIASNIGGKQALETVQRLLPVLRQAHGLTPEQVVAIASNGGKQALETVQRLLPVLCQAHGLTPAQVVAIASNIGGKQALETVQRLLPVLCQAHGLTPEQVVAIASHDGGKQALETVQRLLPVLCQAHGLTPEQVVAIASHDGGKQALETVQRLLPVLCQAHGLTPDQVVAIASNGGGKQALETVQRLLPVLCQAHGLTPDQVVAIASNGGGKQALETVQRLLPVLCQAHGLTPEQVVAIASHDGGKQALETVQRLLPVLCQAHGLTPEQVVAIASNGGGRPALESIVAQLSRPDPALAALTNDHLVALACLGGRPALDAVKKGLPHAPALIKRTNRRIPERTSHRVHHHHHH", "summary_of_the_method": "as §1"}, "sN-TALER IIb-1": {"target": "T3, sN-TALER IIb-1 (synthetic)", "T3 chain": "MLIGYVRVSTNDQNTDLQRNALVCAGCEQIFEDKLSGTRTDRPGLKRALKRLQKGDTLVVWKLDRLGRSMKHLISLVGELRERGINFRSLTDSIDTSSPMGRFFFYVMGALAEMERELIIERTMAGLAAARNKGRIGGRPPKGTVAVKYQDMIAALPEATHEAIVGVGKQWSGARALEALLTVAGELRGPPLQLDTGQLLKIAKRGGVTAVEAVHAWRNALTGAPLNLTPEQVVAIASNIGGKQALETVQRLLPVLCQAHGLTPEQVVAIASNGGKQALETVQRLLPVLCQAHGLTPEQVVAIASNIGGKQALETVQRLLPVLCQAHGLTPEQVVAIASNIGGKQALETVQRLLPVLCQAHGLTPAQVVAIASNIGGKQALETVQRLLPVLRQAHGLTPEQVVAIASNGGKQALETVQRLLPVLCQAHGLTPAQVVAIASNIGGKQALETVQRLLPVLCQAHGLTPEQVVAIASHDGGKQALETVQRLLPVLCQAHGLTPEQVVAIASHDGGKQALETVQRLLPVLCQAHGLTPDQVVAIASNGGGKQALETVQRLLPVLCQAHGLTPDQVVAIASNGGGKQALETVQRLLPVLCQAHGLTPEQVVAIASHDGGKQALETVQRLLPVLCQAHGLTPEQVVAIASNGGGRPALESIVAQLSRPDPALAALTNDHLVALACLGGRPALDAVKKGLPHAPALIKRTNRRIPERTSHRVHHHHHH", "summary_of_the_method": "as §1"}}, "data": [{"binder": "B1", "values": [{"measurement": "activity", "setting": "sN-TALER IIa-1", "result": 4, "unit": "score"}, {"measurement": "activity", "setting": "sN-TALER III-1", "result": 4.5, "unit": "score"}, {"measurement": "activity", "setting": "sN-TALER IIb-1", "result": 3, "unit": "score"}]}]}
